System: MS2 coat protein
Assay: apparent KD of MS2 coat protein; designed switch direction (-1 OFF switch, 1 ON switch): -1; higher = weaker reporter binding
Method in brief: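 On Illumina chips, designed RNA switches with common flanks were made by stalled E. coli RNA polymerase. Titrations with SNAP-549-labelled MS2 coat protein, doubling from 0.7 or 1.5 nM to 3 µM, were done with no input, with 200 uM small-molecule ligand, or with an oligonucleotide input. Apparent KD is the median per design over clusters, from curve fits of normalised cluster fluorescence.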

[1] = Eterna round: R95, input ligand: FMN 200 uM
[2] = Eterna round: R95, input ligand: microRNA oligo, concentration not stated
[3] = Eterna round: R95, input ligand: none
[4] = input ligand: microRNA oligo, concentration not stated

Sequence	apparent KD of MS2 coat protein (input ligand: FMN 200 uM) [nM]	apparent KD of MS2 coat protein (input ligand: none) [nM]	apparent KD of MS2 coat protein [1] [nM]	apparent KD of MS2 coat protein [2] [nM]	apparent KD of MS2 coat protein [3] [nM]	apparent KD of MS2 coat protein [4] [nM]
UGAAUGUCAGGAUAUCGUGCAUACAACGAAAGUUCUAUGUGCGAGAAGGGACAUGAGGAUCACCCAUGUCUUCG [Omei Ex4 A15] (Eterna round: R97, puzzle: Exclusion 4)	50.7	18.3	–	–	–	–
UUUAAUUUUUUUUUUUUACAAGCUUUUUGCUCGUCUUAUACAUGAGGAUCACCCAUGUGAAUGGAGGGUAAAUUAUC [JMF 84] (puzzle: Sensor v3, turn-off variant 2)	–	–	19.4	42.5	16.8	–
AUUUUAUUCUGAGGAUAUUGAUUAAUCCUCUCACAUGAGGAUCACCCAUGUUUCCGUGUUUACCGCAAGAAGGCAGUUUUGUAU [JR_ExcNG2_Sub025] (Eterna round: R96, puzzle: Exclusion NG 2)	41.4	41	–	–	–	35.2
GAAAAGUGAGGAUAUGGUAAAAGAAGAAGAAGAAGAAAACUCCAGAAGGCACAUGAGGAUCACCCAUGUGAAAG [salish99_ex4_r3_008] (puzzle: Exclusion 4)	–	–	17	17.1	16.5	–
GUUCCACGAGGAUAUGAGGGCAACUACAUGAGGAUCACCCAUGUGAGCGAUCCUCAGAAGUCAGAAGGCGUGGAGA [Eternabot (L2) Solution 77] (Eterna round: R97, puzzle: Exclusion 5)	63.7	70.4	–	–	–	–
UGGGAGGGAGGAUAUACGAAAGUUAUUCUCAUGUCAGACCCACAUGAGGAUCACCCAUGUAGAAGGCCCGGGUC [EX2 B.17] (Eterna round: R97, puzzle: Exclusion 2)	358	203	–	–	–	–
GGACAACAUGAGGAUCACCCAUGUCAGGAUAUGACGGCGUCGGCGAAAGCGGAGGCGGUCAGAAGGGACGGUAA [AK-MS2ROC-r4-exclusion1-10.1] (Eterna round: R97, puzzle: Exclusion 1)	115	51.9	–	–	–	–
UAGAAUCGAGGAUAUACAUGAGGAUCACCCAUGUGUUGCCGCAUGAUGUGAUCGUCAGGUAGAAGGCGAUUAUA [Exclusion 3 - Mod of Jieux's Gilly Gone Silly 23 v.7] (puzzle: Exclusion 3)	–	–	–	35.4	–	–
GGUUCACGAGGAUAUCGAUUUUAGUACAUGAGGAUCACCCAUGUUGUCCAGGUUUCGAUUCGAGAAGGCGUGAACC [LRO-Ex5-04] (puzzle: Exclusion 5)	–	–	–	20.8	–	–
AAUUACAAGCAAAGAUCUUACAUGAGGAUCACCCAUGUGCUCGUUUUAUAAAGUACUAUCACGAAAGUGAUAGUACA [Mat - Sensor v3 - turn-off var 1 - Eli Mod - D95] (puzzle: Sensor v3, turn-off variant 1)	–	–	29.9	90.9	26.3	–
GGCGCCUCAGGAUAUCAGUCUGGAUCAGAAAAGAUCCUGACUGAGAAGGGACAUGAGGAUCACCCAUGUUCGCC [Mat - Exclusion 4 - Eli Mod - D52] (Eterna round: R97, puzzle: Exclusion 4)	17.3	18.4	–	–	–	–
UAUGGUUAAGUCAGGAUAUGCUCAUAGAGGUCUAUGCAGAAGGGACAUGAGGAUCACCCAUGUAUGGUCGUGUU [Ex4 #64] (Eterna round: R97, puzzle: Brourd's mod of Exclusion 4)	84.6	53.6	–	–	–	–
CGUAUCUUUCACGUGAGUAGUGGGUGCAACAGGUGGGUUACAUGAGGAUCACCCAUGUACUCACUUGCUCGUCUUAU [Grok-var2-06] (puzzle: Sensor v3, turn-off variant 2)	–	–	38	23.4	34.3	–
AAGGAUAGAGGAUAUACGUAGAUACAGAUUCAUGUAGAACUACAUGAGGAUCACCCAUGUAGAAGGCUAUCCUA [Fiskers Ex 2 - 6] (puzzle: Exclusion 2)	–	–	–	26.5	–	–
CGCGCGCGUGUAGGAUAUGUGUUUGGUUCGGGCGCAGAAGGACAUGAGGAUCACCCAUGUGUGUGUGUGCGCGCAGUGUGUGCG [-30, -27 kcal, 15% A] (Eterna round: R96, puzzle: Exclusion NG 1)	55	41.7	–	–	–	32.7
UUGGUUGUGGUAGGAUAUCCGUUGGAAACUGUUGGAGAAGGACCACAGUCACUGGGUCCUUGUUUGGUGGAGUGGAAGAACCAU [pwkr exNG1 F6.16] (Eterna round: R96, puzzle: Exclusion NG 1)	453	329	–	–	–	294
GUCAGACGAGGAUAUAGAUUUGAUAACAUGAGGAUCACCCAUGUGAUCGAUAGAUCAGAUUUAGAAGGUGUCUGAC [E5/8-B3] (Eterna round: R97, puzzle: Exclusion 5)	403	331	–	–	–	–
AAAGAGCGAGGAUAUGCGUGCCGGUGCGGCCAGCCGAUGUGACAUGAGGAUCACCCAUGUAGAAGGCGCAGAAA [Excls2-VIII] (puzzle: Exclusion 2)	–	–	–	12.8	–	–
CCUCUGGUAGGAUAUACUGGUGGCGGCAUUAUCGUGAAGGUACAUGAGGAUCACCCAUGUAGAAGGGCUCAAGU [Eternabot (L2) Solution 83] (Eterna round: R97, puzzle: Exclusion 2)	38.3	37.1	–	–	–	–
UAGCAUUGCCAAAGGUAGUGCAAAACAUGAGGAUCACCCAUGUAGGAUAUGGUAGGCAAAGCUUACCAGAAGGACAUGAUAAUU [Mat - Exclusion NG 3 - Mod of JL - D17] (Eterna round: R96, puzzle: Exclusion NG 3)	204	51.5	–	–	–	46.3
UAAUAACAUGUAGGAUAUGCGUGGCGAAGCUAUGCAGAAGGACAUGAGGAUCACCCAUGUUAAAGCGUCUGAGAACAGAUGCGA [Mat - Exclusion NG 1 - Mod of JL - D98] (Eterna round: R96, puzzle: Exclusion NG 1)	165	30.5	–	–	–	24.9
GAUUAUGCGAGCUUUAGGGACAUGAGGAUCACCCAUGUUCGUCUUAUUAGUCUAGGUGCACUGACAUACCUAAAUCU [JMF 90] (puzzle: Sensor v3, turn-off variant 1)	–	–	19.1	26.1	18.3	–
GUAAAGUGAGGAUAUGGUAAAUUAAUUAUUAAUUAAUUAAUCCAGAAGGCACAUGAGGAUCACCCAUGUAAUUG [Mat - Exclusion 4 - D86] (puzzle: Exclusion 4)	–	–	–	22.2	–	–
UUUUACAAGCUAAGAUCCUACAUGAGGAUCACCCAUGUGGUCCGGUGACGUGAGUCACCGGACUUAGCUCGUCUUGG [salish99_S_TOV1_R5_087] (Eterna round: R97, puzzle: Sensor, turn-off variant 1)	69.5	84.7	–	–	–	–
CUUUUGUGAGGAUAUCAGUAGUAAAAAAUUAAAAUUACUACUGAGAAGGCACAUGAGGAUCACCCAUGUUCCUC [salish99_ex4_r3_021] (puzzle: Exclusion 4)	–	–	–	37.7	–	–
AAGUAUAGAGGAUAUAGUGAGUACUACAUGAGGAUCACCCAUGUUCUUCAUUACGUAUUUCUAGAAGGCUGAUAAA [EX-5 Malc#24] (puzzle: Exclusion 5)	–	–	611	261	289	–

— the supplement of paper PMC9170038
